The target of the experiment is tetrameric Y-complex fragment Nup120-Nup145C-Sec13-Nup85 (NPC-II) (Myceliophthora thermophila). Kind of experiment: mass photometry; mixture of NPC-I and NPC-II (NPC-III) diluted 10-fold from 482 nM immediately before measurement; 10 mM HEPES pH 7.5, 150 mM NaCl, 1 mM DTT, 0.1 mM EDTA; no cross-linker.

Drawing on PMC7156492, this text covers stoichiometry N for one substance.

tetrameric Y-complex fragment Nup120-Nup145C-Sec13-Nup85 (NPC-II) (Myceliophthora thermophila), sequence (main, as listed by the source, chain 1 of 3): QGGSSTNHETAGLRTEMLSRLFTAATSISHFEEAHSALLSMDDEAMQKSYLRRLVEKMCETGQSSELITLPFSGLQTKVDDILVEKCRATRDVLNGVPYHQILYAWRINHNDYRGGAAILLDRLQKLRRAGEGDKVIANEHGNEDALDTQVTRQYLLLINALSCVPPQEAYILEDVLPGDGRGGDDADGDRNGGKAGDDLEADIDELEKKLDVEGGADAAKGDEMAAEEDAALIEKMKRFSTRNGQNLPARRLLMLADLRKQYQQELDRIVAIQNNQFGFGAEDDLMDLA
tetrameric Y-complex fragment Nup120-Nup145C-Sec13-Nup85 (NPC-II) (Myceliophthora thermophila), sequence (partner, as listed by the source, chain 2 of 3): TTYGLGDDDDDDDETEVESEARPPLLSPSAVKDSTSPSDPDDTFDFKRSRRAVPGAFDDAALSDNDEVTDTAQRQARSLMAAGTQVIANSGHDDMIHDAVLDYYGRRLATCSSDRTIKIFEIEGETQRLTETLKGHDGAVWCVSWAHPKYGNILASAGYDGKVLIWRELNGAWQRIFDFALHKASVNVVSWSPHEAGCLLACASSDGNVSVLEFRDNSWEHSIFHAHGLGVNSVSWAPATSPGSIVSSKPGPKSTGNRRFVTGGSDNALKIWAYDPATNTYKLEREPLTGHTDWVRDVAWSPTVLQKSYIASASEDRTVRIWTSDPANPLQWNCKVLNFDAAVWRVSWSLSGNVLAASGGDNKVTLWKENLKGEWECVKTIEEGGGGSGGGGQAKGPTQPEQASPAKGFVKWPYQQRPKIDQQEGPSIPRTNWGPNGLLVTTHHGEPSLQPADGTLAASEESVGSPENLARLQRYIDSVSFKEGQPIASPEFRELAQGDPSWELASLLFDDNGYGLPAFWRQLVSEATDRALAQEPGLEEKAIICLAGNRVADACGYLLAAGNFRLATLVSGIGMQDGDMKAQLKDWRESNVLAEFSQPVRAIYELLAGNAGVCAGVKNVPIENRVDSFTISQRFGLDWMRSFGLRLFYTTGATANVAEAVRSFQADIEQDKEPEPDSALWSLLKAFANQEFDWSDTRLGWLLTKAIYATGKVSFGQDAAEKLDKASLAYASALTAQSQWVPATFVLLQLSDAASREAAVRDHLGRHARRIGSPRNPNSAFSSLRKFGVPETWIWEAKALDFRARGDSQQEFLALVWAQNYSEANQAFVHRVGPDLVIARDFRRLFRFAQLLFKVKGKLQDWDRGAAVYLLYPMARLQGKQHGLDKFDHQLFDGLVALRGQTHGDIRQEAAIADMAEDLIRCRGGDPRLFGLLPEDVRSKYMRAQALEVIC
tetrameric Y-complex fragment Nup120-Nup145C-Sec13-Nup85 (NPC-II) (Myceliophthora thermophila), sequence (partner, as listed by the source, chain 3 of 3): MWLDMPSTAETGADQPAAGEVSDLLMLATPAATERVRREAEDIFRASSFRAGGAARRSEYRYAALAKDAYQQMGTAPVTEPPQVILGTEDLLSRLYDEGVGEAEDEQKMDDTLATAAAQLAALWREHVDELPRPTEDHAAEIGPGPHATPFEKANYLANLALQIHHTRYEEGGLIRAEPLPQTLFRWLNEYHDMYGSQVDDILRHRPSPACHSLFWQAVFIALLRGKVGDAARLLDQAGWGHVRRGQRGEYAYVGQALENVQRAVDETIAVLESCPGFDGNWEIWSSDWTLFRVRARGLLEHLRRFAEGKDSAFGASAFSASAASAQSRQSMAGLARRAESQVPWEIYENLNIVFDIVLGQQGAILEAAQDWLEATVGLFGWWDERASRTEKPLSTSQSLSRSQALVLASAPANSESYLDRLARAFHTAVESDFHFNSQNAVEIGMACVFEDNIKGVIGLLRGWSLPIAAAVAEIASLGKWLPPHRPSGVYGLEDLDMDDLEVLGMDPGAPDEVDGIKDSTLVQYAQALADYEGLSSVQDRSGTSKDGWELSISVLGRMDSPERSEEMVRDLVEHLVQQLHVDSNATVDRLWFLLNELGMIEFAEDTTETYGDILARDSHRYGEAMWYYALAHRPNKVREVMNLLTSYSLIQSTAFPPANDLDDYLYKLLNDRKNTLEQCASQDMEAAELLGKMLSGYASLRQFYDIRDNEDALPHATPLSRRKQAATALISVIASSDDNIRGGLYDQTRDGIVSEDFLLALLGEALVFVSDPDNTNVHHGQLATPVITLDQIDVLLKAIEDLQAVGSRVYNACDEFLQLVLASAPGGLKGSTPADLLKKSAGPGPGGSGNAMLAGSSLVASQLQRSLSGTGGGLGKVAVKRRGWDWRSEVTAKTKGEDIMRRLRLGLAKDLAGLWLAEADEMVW

Regarding “tetrameric Nup82-Nup145N-Nup159-Nsp1 complex (NPC-I)”, the stoichiometry N turned out to be 1.
